assay: yeast display, Sf9 membrane polyspecificity reagent, FACS + sequencing; frameworks hold sequencing errors
Outline: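 A synthetic nanobody library was expressed on Saccharomyces cerevisiae BJ5465 by galactose induction for 36–48 hours. The library was stained for 1 hour at 4 °C with 10% biotinylated, detergent-solubilized Sf9 membrane reagent and enriched with streptavidin microbeads before FACS. Low and high (top ~1%) gates were set on anti-HA fluorescence for expression and streptavidin fluorescence for reagent binding, and each polyreactivity label reflects the gate of origin.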

Row | Sequence | polyreactivity (PSR sort gate)
1 | QVQLVESGGGLVQAGGSLRLSCAASGSILYTNAMGWYRQAPGKERELVAAITTSGASTYYADSVKGRFTISRDNAKNTVYLQMNSLKPEDTAVYDCAAPSRYRYYWGNYWGQGTQVTVSS | high polyreactivity
2 | QVQLVESGGGLVQAGGSLRLSCAASGSILYVYAMGWYRQAPGKERELVAAISFSGGSTYYADSVKGRFTISRDNAKNTVYLQMNSLKPEDTAVYYCAAALGPGAWYGDKYEYEYWGQGTQVTVSS | low polyreactivity
3 | QVQLVESGGGLVQAGGSLRLSCAASGSILYVYAMGWYRQAPGKERELVATITGRVVSKNYADSVKGRLTLSRDNAKNSVYLQMNSLKPEDTAVYYCAARTRRRRGEYDYWGQGTQVTVSS | high polyreactivity
4 | QVQLVESGGGLVQAGGSLRLSCAASGSILYVYAMGWYTQAPGKERELVAAISNRDGSTYYADSVKGRFTISRDNAKNTVYLQMNSLKPEDTAVYYCNADGYGDYSFLKYRFEYDYWGQGTQVTVSS | low polyreactivity
5 | QVQLVESGGGLVQAGGSLRLSCAASGSILYVYDMGWYRQAPGNERELVATITGRVVSTNYADSVKGRFTISRDNAKNTVYLQMNSLKPEDTAVYYCAARTRRRRGEYDYWGQGTQVTVSS | high polyreactivity
6 | QVQLVESGGGLVQAGGSLRLSCAASGSILYWNAMGWYRQAPGKERELVADITWRGGSTYADSVKGRFTISRDNAKNTVYLQMNSLKPEDTAVYYCNAVPVRGSAPRYRQTYSYWGQGTQVTVSS | high polyreactivity
7 | QVQLVESGGGLVQAGGSLRLSCAASGSIMNNYAMGWYRQAPGKERELVAAISSSGGTNYADSVKGRFTISRDNAKNTVYLLMNSLKPEDTAVYYCNADVMDGGYDYWGQGTQVTVSS | low polyreactivity
8 | QVQLVESGGGLVQAGGSLRLSCAASGSINCSNAMGLYRKAPRKERDLVAAITESGGDTYYADSVKGRFTISRDNAKNTVYLLINSMKPEDTAVYYCAARYFGVIVDVSLFSEYGSWGQGTQVTVSS | low polyreactivity
9 | QVQLVESGGGLVQAGGSLRLSCAASGSIQGKNAMRWYRPAPGKERELVAAISTRGGSTYYADSVKGRFTISRDNAKNSVYFQMNSLKPEDTAVYYCNARWREYKAKWGSRYDYWGQGTQVTVSS | high polyreactivity
10 | QVQLVESGGGLVQAGGSLRLSCAASGSIQYRYAMGWYRQAPGKERELVAAITRSGGSTYYADSVKGRFTISRDNAKNTVYLQMNSLKPEDTAVYYCARQRKVSAHSIEMDYWGQGTQVTVSS | low polyreactivity
11 | QVQLVESGGGLVQAGGSLRLSCAASGSIQYYAMGWYRQAPGKERELVAAIRFSGGRTYYADSVKGRFTISRDNAKNTVYLQMNSLKPEDTAVYYCAAYRSPRRSGAPSQGKFDYWGQGTQVTVSS | low polyreactivity
12 | QVQLVESGGGLVQAGGSLRLSCAASGSIRYNAMGWYRQAPGKERELVAAISYRGGTTYYADSVKGRYTISRDNAKNTVYLQMNSLKPEDTAVYYCNAGVRAYGYSAKYYYWGQGTQVTVSS | high polyreactivity
13 | QVQLVESGGGLVQAGGSLRLSCAASGSISAGNAMGWYRQAPGKERELVAAISISAGRTYYADSVKGRFTISRDNAKNTVYLQMNSLKPEDTAVYYCNAYSSYIKYDYWGQGTQVTVSS | high polyreactivity
14 | QVQLVESGGGLVQAGGSLRLSCAASGSISDSYAMGWYRPAPGKERELVAAITSGDSTYYADSVKGRFTISRDNAKNTVYLQMNSLKPEDTAVYYCAKRVSRVRGYGFTDWSEYDYWGQGTQVTVSS | low polyreactivity
15 | QVQLVESGGGLVQAGGSLRLSCAASGSISFLYTMGWYRQAPGKERELVAAITGSTASTYYADSVKGRFTISRDNAKNTVYLQMNSLKPEDTAVYYCAAYWYAEGYWVSRDYWGQGTQVTVSS | low polyreactivity
16 | QVQLVESGGGLVQAGGSLRLSCAASGSISGINAMGWYRQAPGKERELVAAISRRAGSTYYADSVKGRFTISRDNAKNTVYLQMNSLKPEDTAVYYCAAENFYPYTYYASDYWGQGTQVTVSS | high polyreactivity
17 | QVQLVESGGGLVQAGGSLRLSCAASGSISGIYAMGWYRQAPGKERELVAAISRGGSTNYADSVKGRFTISRDNAKNTVYLQMNSLKPEDTAVYYCAARTAYYPYRQRYYYWGQGTQVTVSS | high polyreactivity
18 | QVQLVESGGGLVQAGGSLRLSCAASGSISGSYAMGWYRQAPGKERELVASITTSGGGTYYADSVKGRFTISRDNAKNTVYLQMNSLKPEDTAVFYCAVEYGYPYAGLDYWGQGTQVTVSS | low polyreactivity
19 | QVQLVESGGGLVQAGGSLRLSCAASGSISGYNAMGWYRQAPGQERELVAAIYRSDGTDYADSVKGRFTISRDNAKNTVYLQMNSLNPEDTAVYYCNADKWSVVGYVRGFYRDDYWGQGTQVTVSS | low polyreactivity
20 | QVQLVESGGGLVQAGGSLRLSCAASGSISGYYAMGGYRQAPGKERELVASIRYTGARTYYADSVKGRFTISRDNAKNTVYLQMNSLKPEDTAVYYCAADVKRDRVWGGDYWGQGTQVTVSS | low polyreactivity
21 | QVQLVESGGGLVQAGGSLRLSCAASGSISGYYAMGWYSQAPVKERELVASIRYTGARTYYADSVKGRFTISRDNAQNTVYLQMNSLKPEDTAVYYCAADVKRDRVWGGDYWGQGTQVTVSS | low polyreactivity
22 | QVQLVESGGGLVQAGGSLRLSCAASGSISKINAMGWYRQAPGKERELVAAINTGDSTYYADSVKGRFTISRDNAKNTVYLKMNSLKPVDSAVYYCAAEGSPTGYDYWGQGTQVTVTS | low polyreactivity

Row | Sequence | polyreactivity (PSR sort gate)
23 | QVQLVESGGGLVQAGGSLRLSCAASGSISLVYAMGWYRQATGKERELVAVINHADDTSYADSVKGRFTISRDNAKNTVYLQMNSLKPEDTADYYCAAESSYFVALTQFYTVEFYYWGQGTQLTVSS | low polyreactivity
24 | QVQLVESGGGLVQAGGSLRLSCAASGSISNQYVMGWYRQAPGKERELVAAIRVIGGSTSYADSVKGRFTISRDNAKNTVYLQMNSLKPEDTAVYYCAADWAWTISDGYYYGYPQYDYWGQGTQVTVSS | high polyreactivity
25 | QVQLVESGGGLVQAGGSLRLSCAASGSISPANTMGWYRQAPGKEREFVAGISRRGGRTYYADSVKGRFTISRDNAKNTVYLQMNSLIPEDTAVYYCATALIVRGPSRYEYWGQGTQVTVSS | high polyreactivity
26 | QVQLVESGGGLVQAGGSLRLSCAASGSISPQNVMGWYRQAPGKERELVAAITGGGSTNYADSVKGRFTISRDNAKNTVYLQMNSLKPEDTAVYYCAVYRRYLPYDYWGQGTQVTVSS | low polyreactivity
27 | QVQLVESGGGLVQAGGSLRLSCAASGSISRVYTMGWYRQAPGKQRELVAVIRRSSGSTYYADSLKGRFTISRDNAKNTVYFQMNSLKPEDTAVYYCAARGYYSGQTTIGMDYWGQGTQVTVSS | low polyreactivity
28 | QVQLVESGGGLVQAGGSLRLSCAASGSISSVYGMGWYRQAPGKERELVAAITSNGGSTYYADSVKGRFTISRDNAKNTVYLQMNSMKPEDTAVYYCAAKYGSRGYYSRGRYYWGQGTQVTVSS | high polyreactivity
29 | QVQLVESGGGLVQAGGSLRLSCAASGSISSYAMGWSRQAPGKERELVASITWHGGGTYYADSVKGRFTISRDNAKNTVYLQMNSLKPEDTAVYYCAKDNYLDPPYFYRFAGYDYCGQGTQVTVSS | low polyreactivity
30 | QVQLVESGGGLVQAGGSLRLSCAASGSISTYYAMGWYRPAPGKERDLVAAISKSGGSKYYADSVKGRFTISRDNAKNTVYLQMNSLKPEDTAVYYCAARYKGRAFWMDYWGQGTQVTVSS | high polyreactivity
31 | QVQLVESGGGLVQAGGSLRLSCAASGSISVANAMGWYRQAPGKERELVAGITSSGSTYYADSVKGRFTISRDNAKNTVYLQMNSLKPEDTAVYYCNADVHYSTFYTVVVSLYYWGQGSQVTVSS | low polyreactivity
32 | QVQLVESGGGLVQAGGSLRLSCAASGSISVVNMGWYRQAPGKERELVASITSSGSTTYADSVKGRFTISRDNAKNTVYLQMNSLKPEDTAVYYCAADVGTDYTYQHPAGAAYDYWGQGTQVTVSS | low polyreactivity
33 | QVQLVESGGGLVQAGGSLRLSCAASGSISVYNAMGWYRQAPGKERELVAAISWSGGRTSYADSVKGRFTISRDNAKITVYLQMNSLKPEDTALYYCAADELTVLWDEDYWGQGTQVTVSS | low polyreactivity
34 | QVQLVESGGGLVQAGGSLRLSCAASGSISVYYAMGRYRQAPGKERELVASIRYTGGRTYYADSVKGRFTISRDNAKNTVYLQMNSLKPEDTAVYYCAADVKRDRVWGGDYWGHGTQVTVSS | low polyreactivity
35 | QVQLVESGGGLVQAGGSLRLSCAASGSISWYYAMGWYRQAPGKERELVAAISDSGGDTYYADSVKGRFTISRDNAKNTVYLQMNSLKPEDTAVYYCAAQYRGSYRTTYDYWGQGTQVTVSS | low polyreactivity
36 | QVQLVESGGGLVQAGGSLRLSCAASGSISYLYAMGWYRQAPGKERELVAAISRSGASTYYADSVKGRFTISRDNAKNTVYLQMNSLKPEDTAVYYCAAYKIWGRVRYDYWGQGTQVTVSS | low polyreactivity
37 | QVQLVESGGGLVQAGGSLRLSCAASGSISYQNAMGWYRQATGKERELVAAISGDGDSMYYADSVKGRFTISRDNAKNTVYLQMNSLKPEDTAVYYCAAEPNVYFSVFVLFPSDYWGQGTQVTVSS | low polyreactivity
38 | QVQLVESGGGLVQAGGSLRLSCAASGSISYRYAMGWYRQAPGKERELVAGISRSGGSTSYADSVKGRFTISRDNAKNTVYLQMNSLKPEDTAVYYCNRPSSLAWPWTGSFSRYDYWGQGTQVTVSS | low polyreactivity
39 | QVQLVESGGGLVQAGGSLRLSCAASGSISYVNAMGWYRQAPGKERELVAAITGGGSTNYADSVKGRFTISRDNAKNTVYLQMNSLKPEDTAVYYCNSGDSTGEVIGDYWGQGTQVTVSS | low polyreactivity
40 | QVQLVESGGGLVQAGGSLRLSCAASGSISYYAMGWYRQAPGKERELVAAISSSGGSTYYADSVKGRFTISRDNAKNTVYLQMNSLKPEDTAVYYCAAYGRYGAHTGYGSWGQGTQVTVSS | high polyreactivity
41 | QVQLVESGGGLVQAGGSLRLSCAASGSIVIINTMGWYRQAPGKERELVAAISWGGTDTNYADSVKGRFTISRDNAKNTVYVQMNSLKPEDTAVYYCNTDQDLVRSYDYWGQGTQVTVSS | low polyreactivity
42 | QVQLVESGGGLVQAGGSLRLSCAASGSIVTANAMAWYRPAPGKERELVAAITTSGTSTYYADSVKGRFTLSRDNAKNTVYLQMNSLKPEDTSVYYCNADKFYRAGSELDYWGQGTQVTVSS | high polyreactivity
43 | QVQLVESGGGLVQAGGSLRLSCAASGSIVVKYDMSWYRQAPGKERELVAAISGSGGSTYYADSVKGRFTISRDNAKNTVYLQMNSVKPEDTAVYYCAADDYFYSGRYGFEYWGQGTQVTVSS | low polyreactivity

— the nanobody polyreactivity screen of Harvey et al. (2022)
